Source: PMC6868016
Values belong to the binder of their own block, whether it stands above or below them.

What was measured:
[1] = biological target: ACP-GluA1 (GluA1 tagged with the acyl carrier protein at its N-terminus) (mouse); test: single-molecule fluorescence tracking (TIRF), colocalization durations, simultaneous two colours; living HEK293 cells, plasma membrane, TARP2-mGFP with ATTO594-labelled ACP-GluA1 or ACP-GluA2 monomers and homodimers; lifetimes corrected for photobleaching
[2] = biological target: ACP-GluA2 (GluA2 tagged with the acyl carrier protein at its N-terminus), P23819; test: as above; settings: remark: other sources report otherwise
Sequence of ACP-GluA2 (GluA2 tagged with the acyl carrier protein at its N-terminus), P23819 (P23819 25-883): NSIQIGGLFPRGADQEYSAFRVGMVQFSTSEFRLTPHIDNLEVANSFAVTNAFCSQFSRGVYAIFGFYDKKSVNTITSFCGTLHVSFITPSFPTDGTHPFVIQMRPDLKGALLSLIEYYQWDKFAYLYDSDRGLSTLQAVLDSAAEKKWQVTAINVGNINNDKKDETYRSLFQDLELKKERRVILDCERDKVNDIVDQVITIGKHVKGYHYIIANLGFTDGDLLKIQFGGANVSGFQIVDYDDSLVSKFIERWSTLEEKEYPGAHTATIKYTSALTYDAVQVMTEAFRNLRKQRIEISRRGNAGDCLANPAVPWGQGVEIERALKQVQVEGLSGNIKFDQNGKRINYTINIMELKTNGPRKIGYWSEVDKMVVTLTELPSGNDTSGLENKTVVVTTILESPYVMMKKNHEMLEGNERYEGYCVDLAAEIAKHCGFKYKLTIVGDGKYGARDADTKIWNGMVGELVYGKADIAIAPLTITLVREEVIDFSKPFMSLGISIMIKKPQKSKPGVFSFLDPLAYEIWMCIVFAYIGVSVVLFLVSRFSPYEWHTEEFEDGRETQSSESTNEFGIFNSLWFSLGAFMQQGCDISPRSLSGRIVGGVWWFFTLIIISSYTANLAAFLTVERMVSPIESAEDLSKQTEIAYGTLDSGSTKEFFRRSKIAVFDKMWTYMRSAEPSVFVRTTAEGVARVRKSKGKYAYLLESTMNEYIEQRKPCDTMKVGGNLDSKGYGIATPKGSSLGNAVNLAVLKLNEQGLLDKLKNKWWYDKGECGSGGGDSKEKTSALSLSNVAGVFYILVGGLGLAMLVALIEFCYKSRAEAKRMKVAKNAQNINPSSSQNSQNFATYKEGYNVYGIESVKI

Sequence of ACP-GluA1 (GluA1 tagged with the acyl carrier protein at its N-terminus) (mouse) (P23818 19-907): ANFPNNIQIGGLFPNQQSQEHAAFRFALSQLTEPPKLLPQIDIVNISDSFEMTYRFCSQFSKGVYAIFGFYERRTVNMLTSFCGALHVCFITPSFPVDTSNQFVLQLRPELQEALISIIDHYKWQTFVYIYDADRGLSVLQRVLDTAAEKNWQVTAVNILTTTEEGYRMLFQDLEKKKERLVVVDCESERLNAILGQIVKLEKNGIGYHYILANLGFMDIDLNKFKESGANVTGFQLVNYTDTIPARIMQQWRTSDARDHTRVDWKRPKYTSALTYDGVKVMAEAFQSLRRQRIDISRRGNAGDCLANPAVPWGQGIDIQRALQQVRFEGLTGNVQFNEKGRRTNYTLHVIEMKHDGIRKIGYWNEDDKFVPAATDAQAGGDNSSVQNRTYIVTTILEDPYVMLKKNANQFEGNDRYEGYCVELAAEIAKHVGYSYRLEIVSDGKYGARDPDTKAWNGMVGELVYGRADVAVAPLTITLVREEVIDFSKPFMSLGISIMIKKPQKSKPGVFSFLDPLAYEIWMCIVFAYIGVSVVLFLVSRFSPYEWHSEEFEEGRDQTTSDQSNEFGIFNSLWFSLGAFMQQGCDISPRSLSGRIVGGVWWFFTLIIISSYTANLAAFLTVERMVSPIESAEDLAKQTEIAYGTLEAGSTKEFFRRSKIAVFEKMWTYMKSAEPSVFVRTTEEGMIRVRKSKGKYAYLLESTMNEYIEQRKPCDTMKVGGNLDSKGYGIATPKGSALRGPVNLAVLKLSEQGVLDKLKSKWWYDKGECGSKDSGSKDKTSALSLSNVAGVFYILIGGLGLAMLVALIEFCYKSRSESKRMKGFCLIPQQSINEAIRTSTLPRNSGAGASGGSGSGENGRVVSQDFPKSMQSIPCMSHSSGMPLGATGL

lifetime of binding (to GluA1 monomers and to GluA1 homodimers) [1]: 200 ms
B1: TARP2-mGFP (transmembrane AMPA receptor regulatory protein 2 with mGFP fused to its C-terminus) (natural protein)
chain: MGLFDRGVQMLLTTVGAFAAFSLMTIAVGTDYWLYSRGVCKTKSVSENETSKKNEEVMTHSGLWRTCCLEGNFKGLCKQIDHFPEDADYEADTAEYFLRAVRASSIFPILSVILLFMGGLCIAASEFYKTRHNIILSAGIFFVSAGLSNIIGIIVYISANAGDPSKSDSKKNSYSYGWSFYFGALSFIIAEMVGVLAVHMFIDRHKQLRATARATDYLQASAITRIPSYRYRYQRRSRSSSRSTEPSHSRDASPVGVKGFNTLPSTEISMYTLSRDPLKAATTPTATYNSDRDNSFLQVHNCIQKDSKDSLHANTANRRTTPV

lifetime of binding (to GluA2 monomers and to GluA2 homodimers) [2]: 200 ms
B2: TARP2-mGFP (transmembrane AMPA receptor regulatory protein 2 with mGFP fused to its C-terminus), O88602 1-323 (natural protein)
chain: B1 chain
modifications: here or on the partner: ATTO594 on the ACP tag (ATTO594-Coenzyme A with ACP-synthase)
